# In patent publication US20140155331A1 (published 2014):
# Where no end group is shown, it is not given here. [ ]: non-standard residue; d: D form. Aib = CC(C)(N)C(=O)O
# B1: S100B (other)
# chain: MSELEKAMVALIDVFHQYSGREGDKHKLKKSELKELINNELSHFLEEIKEQEVVDKVMETLDNDGDGECDFQEFMAFVAMVTTACHEFFEHE
# B2: pBDC-TRTK (pBM-TRTK dimerised with a properly designed crosslinker) (peptide)
# peptide: fluorescein-TRTKIDW[Aib]KIL[Aib]GGGCG
# modifications: not fully specified (residue 16); also: homodimer: two copies joined at Cys16 through BMH, linker at 16 via BMH, other end not in the chain
# B3: pBM-53 (Aib substituted p53 monomer peptide) (peptide)
# peptide: fluorescein-QST[Aib]RH[Aib]KLMFKT[Aib]G
# Key:
# pBDC-53 = test: fluorescence anisotropy
# S100B = target: B1; test: fluorescence anisotropy
Binder,Kd (pBDC-53) [nM],Kd (S100B) [nM]
B1,267,–
B2,–,32
B3,–,4600
